Tests used:
[1] = target: T1, human VEGFR-1 (FLT-1) expressed on porcine aortic endothelial cells (PAE/FLT-1) (human), P17948; assay: competitive cell binding on PAE/FLT-1 cells, 125I-VEGF165 as radioligand; conditions: remark: other sources report otherwise
T1 chain: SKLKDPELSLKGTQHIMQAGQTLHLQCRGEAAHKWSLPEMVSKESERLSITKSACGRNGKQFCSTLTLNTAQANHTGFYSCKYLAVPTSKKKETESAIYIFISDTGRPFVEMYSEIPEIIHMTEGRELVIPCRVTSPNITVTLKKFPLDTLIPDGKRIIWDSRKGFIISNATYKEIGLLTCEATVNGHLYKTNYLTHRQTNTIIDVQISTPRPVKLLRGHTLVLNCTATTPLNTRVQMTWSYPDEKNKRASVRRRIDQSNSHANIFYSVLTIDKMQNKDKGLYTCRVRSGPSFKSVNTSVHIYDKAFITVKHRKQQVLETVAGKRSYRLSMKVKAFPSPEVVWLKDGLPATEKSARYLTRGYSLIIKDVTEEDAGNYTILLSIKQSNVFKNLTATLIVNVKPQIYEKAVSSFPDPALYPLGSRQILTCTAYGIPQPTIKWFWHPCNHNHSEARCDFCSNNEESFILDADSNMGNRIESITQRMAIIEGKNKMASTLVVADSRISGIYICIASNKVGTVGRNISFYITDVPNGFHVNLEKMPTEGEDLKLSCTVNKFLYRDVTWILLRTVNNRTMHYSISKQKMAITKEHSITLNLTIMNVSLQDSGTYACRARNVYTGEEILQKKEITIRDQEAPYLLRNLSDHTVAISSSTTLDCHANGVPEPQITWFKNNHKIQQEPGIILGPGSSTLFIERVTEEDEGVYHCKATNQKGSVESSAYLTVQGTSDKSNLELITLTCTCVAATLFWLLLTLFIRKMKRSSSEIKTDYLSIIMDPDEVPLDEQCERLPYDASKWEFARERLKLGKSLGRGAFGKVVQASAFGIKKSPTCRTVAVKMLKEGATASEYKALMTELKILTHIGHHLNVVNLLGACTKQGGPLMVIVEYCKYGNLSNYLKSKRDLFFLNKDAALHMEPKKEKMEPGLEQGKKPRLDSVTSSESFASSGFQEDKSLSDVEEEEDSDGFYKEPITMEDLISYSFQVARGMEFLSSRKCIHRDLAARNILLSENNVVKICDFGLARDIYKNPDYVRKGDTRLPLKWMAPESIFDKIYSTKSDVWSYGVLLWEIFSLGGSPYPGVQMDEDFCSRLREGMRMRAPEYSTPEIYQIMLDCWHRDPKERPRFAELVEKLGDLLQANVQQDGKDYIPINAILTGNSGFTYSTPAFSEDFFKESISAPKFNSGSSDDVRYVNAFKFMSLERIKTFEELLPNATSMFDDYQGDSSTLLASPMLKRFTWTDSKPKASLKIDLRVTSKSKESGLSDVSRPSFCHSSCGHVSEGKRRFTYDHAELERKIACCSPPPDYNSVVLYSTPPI

[2] = target: T2, human VEGFR-2 (KDR) expressed on porcine aortic endothelial cells (PAE/KDR) (human, UniProt P35968 20-1356); assay: competitive cell binding on PAE/KDR cells, 125I-VEGF165 as radioligand (Example 2)
T2 construct: whole, on cells; also called Flk-1/KDR; PAE/KDR cells
T2 sequence (P35968 20-1356): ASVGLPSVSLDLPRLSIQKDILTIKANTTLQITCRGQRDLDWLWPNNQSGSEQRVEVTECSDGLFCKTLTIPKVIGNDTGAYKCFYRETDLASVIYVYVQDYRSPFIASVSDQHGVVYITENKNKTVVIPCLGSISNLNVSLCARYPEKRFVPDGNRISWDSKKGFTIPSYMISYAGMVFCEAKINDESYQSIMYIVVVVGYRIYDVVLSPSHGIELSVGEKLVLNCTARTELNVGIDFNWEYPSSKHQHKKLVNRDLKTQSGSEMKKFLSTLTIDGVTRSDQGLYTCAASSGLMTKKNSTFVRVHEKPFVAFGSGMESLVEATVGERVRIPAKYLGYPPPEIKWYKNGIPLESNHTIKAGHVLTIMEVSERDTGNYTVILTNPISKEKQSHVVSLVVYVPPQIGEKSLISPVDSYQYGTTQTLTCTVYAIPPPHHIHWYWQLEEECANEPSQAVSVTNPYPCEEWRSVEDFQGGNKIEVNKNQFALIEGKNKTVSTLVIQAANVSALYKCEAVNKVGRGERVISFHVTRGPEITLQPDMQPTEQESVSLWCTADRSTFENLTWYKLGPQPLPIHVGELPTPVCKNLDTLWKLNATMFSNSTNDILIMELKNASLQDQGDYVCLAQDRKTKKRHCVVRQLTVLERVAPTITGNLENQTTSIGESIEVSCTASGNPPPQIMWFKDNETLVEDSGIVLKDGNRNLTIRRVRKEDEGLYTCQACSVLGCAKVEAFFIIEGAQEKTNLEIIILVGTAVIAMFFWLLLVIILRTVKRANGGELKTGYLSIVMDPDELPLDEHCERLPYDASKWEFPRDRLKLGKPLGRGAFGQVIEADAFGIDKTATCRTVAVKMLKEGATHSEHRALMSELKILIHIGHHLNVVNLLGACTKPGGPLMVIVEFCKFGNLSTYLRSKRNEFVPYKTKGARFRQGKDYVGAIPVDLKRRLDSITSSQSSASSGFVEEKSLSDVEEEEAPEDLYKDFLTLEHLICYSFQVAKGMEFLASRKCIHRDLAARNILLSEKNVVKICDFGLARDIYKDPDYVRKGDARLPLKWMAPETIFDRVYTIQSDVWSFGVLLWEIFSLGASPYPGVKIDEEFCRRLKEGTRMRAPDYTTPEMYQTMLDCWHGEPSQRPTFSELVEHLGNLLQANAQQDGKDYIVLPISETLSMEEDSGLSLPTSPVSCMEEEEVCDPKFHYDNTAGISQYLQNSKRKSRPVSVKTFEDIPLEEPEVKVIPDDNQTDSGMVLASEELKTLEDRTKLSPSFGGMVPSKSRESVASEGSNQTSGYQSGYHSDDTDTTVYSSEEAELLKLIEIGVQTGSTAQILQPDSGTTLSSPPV

[3] = target: T2, human VEGFR-2 (KDR) expressed on …; assay: competitive cell binding on PAE/KDR cells, 125I-VEGF165 as radioligand
Procedure: (§1) The detailed procedure of competitive cell binding assay has been described herein. VEGFR-1 and VEGFR-2 binding affinity of VEGF₁₂₁, VEGFDEE, and the DOTA conjugates was evaluated by PAE/FLT-1 and PAE/KDR cell binding assays using ¹²⁵I-VEGF₁₆₅ (VEGF₁₆₅ protein (SEQ ID No: 4)) as the radioligand. The best-fit IC₅₀ values were calculated by fitting the data by nonlinear regression using GraphPad Prism (GraphPad Software, Inc.). Experiments were carried out with triplicate samples.

[4] = target: T2, human VEGFR-2 (KDR) expressed on …; assay: cell-based or functional assay
[5] = target: T3, soluble VEGFR1D1-D6 (sVEGFR1) (Homo sapiens (Human), UniProt P17948 27-687); assay: plate-coated sVEGFR1, competition with 125I-VEGF165
T3 construct: Coated on 96-well plates
Procedure: (§2) Porcine aortic endothelial cells (PAE-KDR cells) stably transfected to express human VEGFR2 (KDR) and porcine aortic endothelial cells (PAE cells) not expressing VEGFR1 and VEGFR2 were cultured in Ham's F-12 medium containing 10% fetal bovine serum (Sigma-Aldrich, Saint Louis, Mo.). Using ¹²⁵I-VEGF₁₆₅ as the radioligand, receptor-binding affinity of VEGF₁₂₁ and VEGFNLS for VEGFR2 was performed as described elsewhere for both PAE-KDR and PAE cells (J Med. Chem. 2005; 48:1098-1106, which is include herein by reference). […] Serially diluted VEGF₁₂₁ or VEGFNLS were then added to compete with the radioligand ¹²⁵I-VEGF₁₆₅. After 2 h incubation at room temperature, the plates were washed and bound ¹²⁵I-VEGF₁₆₅/sVEGFR1 complex was dissociated by acidified 0.1% SDS solution, the eluent was collected and the radioactivity was measured by a gamma counter (Cobra II Auto-Gamma; Perkin-Elmer, Wellesley, Mass.). The best-fit 50% inhibitory concentration (IC₅₀) values were calculated by fitting the data by nonlinear regression using GraphPad Prism 4.0 (GraphPad Software, Inc., San Diego, Calif.). Experiments were performed twice with triplicate samples.

[6] = target: T2, human VEGFR-2 (KDR) expressed on …; assay: competitive cell binding on PAE-KDR cells, 125I-VEGF165 as radioligand
Procedure: as §2

[7] = target: T2, human VEGFR-2 (KDR) expressed on …; assay: competitive cell binding on PAE/KDR cells
Procedure: as §1
(§3) Two proteins were prepared for this study: VEGF₁₂₁ and the triple mutant at the 63, 64, and 67 positions (VEGFDEE) (FIG. 17). The His-tag containing proteins were purified to homogeneity. Cell binding assay was then carried out to determine the VEGFR-1 and VEGFR-2 binding affinity (FIGS. 18a and 18b).

[8] = target: T4, human VEGFR-1 (FLT-1) expressed on porcine aortic endothelial cells (PAE/FLT-1) (human, UniProt P17948 27-1338); assay: competitive cell binding on PAE/FLT-1 cells, 125I-VEGF165 as radioligand
T4 construct: whole, on cells; also called PAE/VEGFR-1 cells; PAE/FLT-1 cells
Procedure: as §1, §3

[9] = target: T2, human VEGFR-2 (KDR) expressed on …; assay: competitive cell binding on PAE/KDR against PAE/FLT-1 cells
Procedure: as §1, §3

[10] = target: T4, human VEGFR-1 (FLT-1) expressed on …; assay: competitive cell binding on PAE/FLT-1 cells
Procedure: as §1, §3

B1: VEGF121 protein (Examples 3 and 5: His-tag containing, expressed from pRSF-Duet1), P15692 207-395 (ligand, not shown: small tags and cut ends)
chain: APMAEGGGQNHHEVVKFMDVYQRSYCHPIETLVDIFQEYPDEIEYIFKPSCVPLMRCGGCCNDEGLECVPTEESNITMQIMRIKPHQGQHIGEMSFLQHNKCECRPKKDRARQEKCDKPRR
IC50 [1]: 4.2 nM

B2: DOTA-VEGF121 (Examples 1 and 2) (ligand)
chain: B1 chain
modifications: DOTA conjugated to lysine residues and/or N-terminal amine groups; 4.33±0.24 DOTA per VEGF121
notes: The conjugation sites are not mapped
IC50 [2]: 1.59 nM
IC50 [3]: 1.66 nM

B3: VEGF121 protein (Examples 1 and 2: expressed from pET-32, tag removed with enterokinase) (ligand)
chain: B1 chain
notes: also called unlabeled VEGF121; naive VEGF121
IC50 [2]: 1.11 nM
IC50 [3]: 1.02 nM

B4: DOTA-VEGF121 (Example 5) (ligand)
chain: B1 chain
modifications: DOTA conjugated; 2.1±0.1 DOTA molecules per monomeric VEGF121; sites not stated
notes: DOTA conjugate of m3; not shown: His-tag
functional assay using PAE/KDR cells (FIG. 18e) [4]: > 5 nM
phosphorylated VEGFR-2 (Western blot, PAE/KDR cells) [4]: > 10 nM
IC50 [3]: 5 nM

B5: VEGF121 protein (Examples 3 and 5: His-tag containing, expressed from pRSF-Duet1) (ligand)
chain: B1 chain
notes: No tag removal is described; also called wild type VEGF121; wild-type VEGF121; not shown: His-tag
IC50 [5]: 4 nM
functional assay using PAE/KDR cells (FIG. 18e) [4]: > 5 nM
phosphorylated VEGFR-2 (Western blot, PAE/KDR cells) [4]: > 10 nM
IC50 [6]: 2.9 nM

B6: VEGFR-2 specific mutant VEGFDEE (D63AE64AE67A mutant of VEGF121) (ligand)
chain: MAPMAEGGGQNHHEVVKFMDVYQRSYCHPIETLVDIFQEYPDEIEYIFKPSCVPLMRCGGCCNAAGLACVPTEESNITMQIMRIKPHQGQHIGEMSFLQHNKCECRPKKDRARQEKCDKPRRGS
notes: also called VEGF121-DEE Mutant; not shown: His-tag
functional assay using PAE/KDR cells (FIG. 18e) [4]: > 5 nM
phosphorylated VEGFR-2 (Western blot, PAE/KDR cells) [4]: > 10 nM
fold lower binding affinity against VEGF121 [7]: 4 fold
IC50 [8]: 78.1 nM
fold higher binding affinity against VEGFR-1 [9]: ~7 fold
IC50 [3]: 11.7 nM
fold lower binding against VEGF121 [10]: ~20 fold

B7: DOTA-VEGFDEE (ligand)
chain: B6 chain
modifications: DOTA conjugated; 2.2±0.1 DOTA molecules per monomeric VEGFDEE; sites not stated
notes: DOTA conjugate of m4; not shown: His-tag
functional assay using PAE/KDR cells (FIG. 18e) [4]: > 5 nM
phosphorylated VEGFR-2 (Western blot, PAE/KDR cells) [4]: > 10 nM
IC50 [3]: 10.3 nM
